For assay [1], the target named is T1, wild-type rat apelin receptor-EGFP (rat, UniProt Q9JHG3 1-377, EGFP is fused at the C-terminal (intracellular) end of the receptor. It is not included in the letters.).
T1 sequence: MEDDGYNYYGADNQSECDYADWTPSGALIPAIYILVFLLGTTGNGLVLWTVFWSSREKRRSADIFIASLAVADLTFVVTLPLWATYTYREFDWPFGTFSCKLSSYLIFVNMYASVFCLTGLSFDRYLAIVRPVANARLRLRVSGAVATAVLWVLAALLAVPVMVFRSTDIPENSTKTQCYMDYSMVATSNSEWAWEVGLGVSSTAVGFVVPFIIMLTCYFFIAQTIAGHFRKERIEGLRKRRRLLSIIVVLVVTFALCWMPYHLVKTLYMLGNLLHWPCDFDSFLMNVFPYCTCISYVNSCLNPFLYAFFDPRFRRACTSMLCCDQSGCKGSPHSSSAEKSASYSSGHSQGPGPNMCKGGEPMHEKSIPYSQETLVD
The experiment in a line: cell-based or functional assay.

Assay [2] has as its target T1, wild-type rat apelin receptor-EGFP. The experiment in a line: cell-based or functional assay. This is another data set of the same source.
Assay [3] shares this target. In words: cell-based or functional assay. This is another data set of the same source.
Assay [4] shares this target. In words: cell-based or functional assay. The source holds these as a separate data set.
Assay [5] has the same target. The experiment in a line: competitive radioligand binding vs [125I]-pE13F, membranes of CHO cells expressing rat apelin receptor-EGFP. How it is done: (§1) Crude membrane preparation from CHO stably expressing the wild-type rat apelin receptor-EGFP, were prepared as previously described (39). […] The reaction was stopped by adding ice-cold binding buffer and filtered through glass microfiber filters (Whatman GF/C filters). Radioactivity was counted in Wizard 1470 Wallac gamma counter (Perkin Elmer, Turku, Finland).

Assay [6] has the same target. The assay is described as above. The protocol: as §1
This is another data set of the same source.

Assay [7] shares this target. The assay is described as above. How it is done:
as §1
This is another data set of the same source.

Read-outs that look alike come from different tables or passages of the source.

The Ki is a measure of affinity in units of concentration, obtained from inhibition or displacement. A higher Ki goes with a looser hold on the target. In general, IC50 refers to the concentration at which inhibition is half-maximal.

On to H-KFRRQRPRLSHKGPMPF-OH [K17F (apelin-17)], for which, in assay [1], the “cAMP production IC50” value came to 0.3 nM. In assay [2], the “ERK1/2 phosphorylation EC50” value was 4.08 nM, the “Internalization EC50” value stood at 0.26 nM and the “cAMP production IC50” value came to 0.3 nM. Moreover, in assay [3], the “IC50 cAMP inhibition” value was 0.09 nM. Besides, in assay [4], the “ERK1/2 phosphorylation EC50” value came to 4.08 nM, the “Inhibition of FSK-induced cAMP production IC50” value stood at 0.3 nM and the “Internalization EC50” value was determined as 0.26 nM. In assay [5], the affinity, expressed as Ki, was 0.26 nM. Besides, in assay [6], the IC50 amounted to 0.29 nM and the inhibition constant Ki is 0.049 nM. Further, in assay [7], the affinity, expressed as Ki, was 0.06 nM.

Values taken from patent US20170355734A1 (INSERM INSTITUT NATIONAL DE LA SANT ET DE LA RECHERCHE M …, published 2017).
